Reference: US20220023399A1 (CONTRAFECT, published 2022)

Target: T1, human serum albumin (human, UniProt P02768 25-609)
T1 construct: also called HSA; rHSA
Assay: confocal/deconvolution microscopy; S. aureus ATCC 700699 pretreated with HSA 40 mg/mL, CF-301^RHD at 0.25×MIC

T1 sequence (P02768 25-609): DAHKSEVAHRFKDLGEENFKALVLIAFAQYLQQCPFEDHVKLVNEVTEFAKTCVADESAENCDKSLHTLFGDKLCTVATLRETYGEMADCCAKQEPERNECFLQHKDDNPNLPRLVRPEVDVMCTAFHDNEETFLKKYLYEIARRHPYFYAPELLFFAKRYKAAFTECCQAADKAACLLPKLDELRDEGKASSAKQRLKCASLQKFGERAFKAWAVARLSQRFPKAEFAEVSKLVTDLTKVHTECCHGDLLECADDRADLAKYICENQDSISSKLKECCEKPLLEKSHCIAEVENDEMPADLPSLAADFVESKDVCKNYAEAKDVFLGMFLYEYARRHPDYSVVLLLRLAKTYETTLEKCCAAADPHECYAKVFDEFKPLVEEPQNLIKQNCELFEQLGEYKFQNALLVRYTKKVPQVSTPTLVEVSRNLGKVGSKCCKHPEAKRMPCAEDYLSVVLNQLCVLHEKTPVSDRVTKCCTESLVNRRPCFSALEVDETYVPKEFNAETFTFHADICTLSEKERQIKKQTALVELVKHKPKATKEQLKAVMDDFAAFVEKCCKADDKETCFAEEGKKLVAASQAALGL

B1: rhodamine-labeled PlySs2 (CF-301) (enzyme)
chain: MTTVNEALNNVRAQVGSGVSVGNGECYALASWYERMISPDATVGLGAGVGWVSGAIGDTISAKNIGSSYNWQANGWTVSTSGPFKAGQIVTLGATPGNPYGHVVIVEAVDGDRLTILEQNYGGKRYPVRNYYSAASYRQQVVHYITPPGTVAQSAPNLAGSRSYRETGTMTVTVDALNVRRAPNTSGEIVAVYKRGESFDYDTVIIDVNGYVWVSYIGGSGKRNYVATGATKDGKRFGNAWGTFK
notes: also called CF-301^RHD; CF-301^RHOD
- binding result: binds
